Patent US20260049138A1 (Chugai, published 2026)

Each binder was assayed against T1, CD3ε homodimer protein (human, UniProt P07766 23-126, limits assumed) (assay: SPR Biacore T200, CD3ε homodimer on chip;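 also: Light-chain single-residue variant antibodies injected over amine-coupled CD3ε homodimer on a CM4 chip at 25 °C, bound amount divided by that of the GLS3000-containing antibody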).
T1 construct: also called CD3 (CD3ε)
T1 sequence (P07766 23-126 limits assumed): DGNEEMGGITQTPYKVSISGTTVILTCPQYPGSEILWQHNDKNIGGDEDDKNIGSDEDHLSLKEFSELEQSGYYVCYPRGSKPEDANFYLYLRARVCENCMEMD

Row | Binder | ratio of amount bound vs unaltered GLS3000
1 | GLS3000 S27aD one-arm antibody (antibody, human IgG1, kappa, L234A L235A, N297A, name in Kabat numbering) heavy: QVQLVESGGGVVQPGRSLRLSCAASGFTFSNAWMHWVRQAPGKGLEWVAQIKAKSNNYATYYAESVKGRFTISRDDSKNSLYLQMNSLKTEDTAVYYCRYVHYGAYYGVDAWGQGTTVTVSSASTKGPSVFPLAPSSKSTSGGTAALGCLVKDYFPEPVTVSWNSGALTSGVHTFPAVLQSSGLYSLSSVVTVPSSSLGTQTYICNVNHKPSNTKVDKKVEPKSCDKTHTCPPCPAPEAAGGPSVFLFPPKPKDTLMISRTPEVTCVVVDVSHEDPEVKFNWYVDGVEVHNAKTKPREEQYASTYRVVSVLTVLHQDWLNGKEYKCKVSNKALPAPIEKTISKAKGQPREPQVYTLPPSRCELTKNQVSLSCAVKGFYPSDIAVEWESNGQPENNYKTTPPVLDSDGSFFLVSKLTVDKSRWQQGNVFSCSVMHEALHNHYTQKSLSLSPDYKDDDDK EPKSSDKTHTCPPCPAPELLGGPSVFLFPPKPKDTLMISRTPEVTCVVVDVSHEDPEVKFNWYVDGVEVHNAKTKPREEQYNSTYRVVSVLTVLHQDWLNGKEYKCKVSNKALPAPIEKTISKAKGQPREPQVCTLPPSRDELTKNQVSLWCLVKGFYPSDIAVEWESNGQPENNYKTTPPVLDSDGSFFLYSKLTVDKSRWQQGNVFSCSVMHEALHNRYTQKSLSLSP light: DIVMTQSPLSLPVTPGEPASISCRSSQDLVHSNRNTYLHWYQQKPGQAPRLLIYKVSNRFSGVPDRFSGSGSGTDFTLKISRVEAEDVGVYYCGQGTQVPYTFGQGTKLEIKRTVAAPSVFIFPPSDEQLKSGTASVVCLLNNFYPREAKVQWKVDNALQSGNSQESVTEQDSKDSTYSLSSTLTLSKADYEKHKVYACEVTHQGLSSPVTKSFNRGEC | 0.79
2 | GLS3000 S27aP one-arm antibody (antibody, human IgG1, kappa, L234A L235A, N297A, name in Kabat numbering) heavy: QVQLVESGGGVVQPGRSLRLSCAASGFTFSNAWMHWVRQAPGKGLEWVAQIKAKSNNYATYYAESVKGRFTISRDDSKNSLYLQMNSLKTEDTAVYYCRYVHYGAYYGVDAWGQGTTVTVSSASTKGPSVFPLAPSSKSTSGGTAALGCLVKDYFPEPVTVSWNSGALTSGVHTFPAVLQSSGLYSLSSVVTVPSSSLGTQTYICNVNHKPSNTKVDKKVEPKSCDKTHTCPPCPAPEAAGGPSVFLFPPKPKDTLMISRTPEVTCVVVDVSHEDPEVKFNWYVDGVEVHNAKTKPREEQYASTYRVVSVLTVLHQDWLNGKEYKCKVSNKALPAPIEKTISKAKGQPREPQVYTLPPSRCELTKNQVSLSCAVKGFYPSDIAVEWESNGQPENNYKTTPPVLDSDGSFFLVSKLTVDKSRWQQGNVFSCSVMHEALHNHYTQKSLSLSPDYKDDDDK EPKSSDKTHTCPPCPAPELLGGPSVFLFPPKPKDTLMISRTPEVTCVVVDVSHEDPEVKFNWYVDGVEVHNAKTKPREEQYNSTYRVVSVLTVLHQDWLNGKEYKCKVSNKALPAPIEKTISKAKGQPREPQVCTLPPSRDELTKNQVSLWCLVKGFYPSDIAVEWESNGQPENNYKTTPPVLDSDGSFFLYSKLTVDKSRWQQGNVFSCSVMHEALHNRYTQKSLSLSP light: DIVMTQSPLSLPVTPGEPASISCRSSQPLVHSNRNTYLHWYQQKPGQAPRLLIYKVSNRFSGVPDRFSGSGSGTDFTLKISRVEAEDVGVYYCGQGTQVPYTFGQGTKLEIKRTVAAPSVFIFPPSDEQLKSGTASVVCLLNNFYPREAKVQWKVDNALQSGNSQESVTEQDSKDSTYSLSSTLTLSKADYEKHKVYACEVTHQGLSSPVTKSFNRGEC | 0.99
3 | GLS3000 S27aG one-arm antibody (antibody, human IgG1, kappa, L234A L235A, N297A, name in Kabat numbering) heavy: QVQLVESGGGVVQPGRSLRLSCAASGFTFSNAWMHWVRQAPGKGLEWVAQIKAKSNNYATYYAESVKGRFTISRDDSKNSLYLQMNSLKTEDTAVYYCRYVHYGAYYGVDAWGQGTTVTVSSASTKGPSVFPLAPSSKSTSGGTAALGCLVKDYFPEPVTVSWNSGALTSGVHTFPAVLQSSGLYSLSSVVTVPSSSLGTQTYICNVNHKPSNTKVDKKVEPKSCDKTHTCPPCPAPEAAGGPSVFLFPPKPKDTLMISRTPEVTCVVVDVSHEDPEVKFNWYVDGVEVHNAKTKPREEQYASTYRVVSVLTVLHQDWLNGKEYKCKVSNKALPAPIEKTISKAKGQPREPQVYTLPPSRCELTKNQVSLSCAVKGFYPSDIAVEWESNGQPENNYKTTPPVLDSDGSFFLVSKLTVDKSRWQQGNVFSCSVMHEALHNHYTQKSLSLSPDYKDDDDK EPKSSDKTHTCPPCPAPELLGGPSVFLFPPKPKDTLMISRTPEVTCVVVDVSHEDPEVKFNWYVDGVEVHNAKTKPREEQYNSTYRVVSVLTVLHQDWLNGKEYKCKVSNKALPAPIEKTISKAKGQPREPQVCTLPPSRDELTKNQVSLWCLVKGFYPSDIAVEWESNGQPENNYKTTPPVLDSDGSFFLYSKLTVDKSRWQQGNVFSCSVMHEALHNRYTQKSLSLSP light: DIVMTQSPLSLPVTPGEPASISCRSSQGLVHSNRNTYLHWYQQKPGQAPRLLIYKVSNRFSGVPDRFSGSGSGTDFTLKISRVEAEDVGVYYCGQGTQVPYTFGQGTKLEIKRTVAAPSVFIFPPSDEQLKSGTASVVCLLNNFYPREAKVQWKVDNALQSGNSQESVTEQDSKDSTYSLSSTLTLSKADYEKHKVYACEVTHQGLSSPVTKSFNRGEC | 1.03
4 | GLS3000 S27aI one-arm antibody (antibody, human IgG1, kappa, L234A L235A, N297A, name in Kabat numbering) heavy: QVQLVESGGGVVQPGRSLRLSCAASGFTFSNAWMHWVRQAPGKGLEWVAQIKAKSNNYATYYAESVKGRFTISRDDSKNSLYLQMNSLKTEDTAVYYCRYVHYGAYYGVDAWGQGTTVTVSSASTKGPSVFPLAPSSKSTSGGTAALGCLVKDYFPEPVTVSWNSGALTSGVHTFPAVLQSSGLYSLSSVVTVPSSSLGTQTYICNVNHKPSNTKVDKKVEPKSCDKTHTCPPCPAPEAAGGPSVFLFPPKPKDTLMISRTPEVTCVVVDVSHEDPEVKFNWYVDGVEVHNAKTKPREEQYASTYRVVSVLTVLHQDWLNGKEYKCKVSNKALPAPIEKTISKAKGQPREPQVYTLPPSRCELTKNQVSLSCAVKGFYPSDIAVEWESNGQPENNYKTTPPVLDSDGSFFLVSKLTVDKSRWQQGNVFSCSVMHEALHNHYTQKSLSLSPDYKDDDDK EPKSSDKTHTCPPCPAPELLGGPSVFLFPPKPKDTLMISRTPEVTCVVVDVSHEDPEVKFNWYVDGVEVHNAKTKPREEQYNSTYRVVSVLTVLHQDWLNGKEYKCKVSNKALPAPIEKTISKAKGQPREPQVCTLPPSRDELTKNQVSLWCLVKGFYPSDIAVEWESNGQPENNYKTTPPVLDSDGSFFLYSKLTVDKSRWQQGNVFSCSVMHEALHNRYTQKSLSLSP light: DIVMTQSPLSLPVTPGEPASISCRSSQILVHSNRNTYLHWYQQKPGQAPRLLIYKVSNRFSGVPDRFSGSGSGTDFTLKISRVEAEDVGVYYCGQGTQVPYTFGQGTKLEIKRTVAAPSVFIFPPSDEQLKSGTASVVCLLNNFYPREAKVQWKVDNALQSGNSQESVTEQDSKDSTYSLSSTLTLSKADYEKHKVYACEVTHQGLSSPVTKSFNRGEC | 1
5 | GLS3000 S27aN one-arm antibody (antibody, human IgG1, kappa, L234A L235A, N297A, name in Kabat numbering) heavy: QVQLVESGGGVVQPGRSLRLSCAASGFTFSNAWMHWVRQAPGKGLEWVAQIKAKSNNYATYYAESVKGRFTISRDDSKNSLYLQMNSLKTEDTAVYYCRYVHYGAYYGVDAWGQGTTVTVSSASTKGPSVFPLAPSSKSTSGGTAALGCLVKDYFPEPVTVSWNSGALTSGVHTFPAVLQSSGLYSLSSVVTVPSSSLGTQTYICNVNHKPSNTKVDKKVEPKSCDKTHTCPPCPAPEAAGGPSVFLFPPKPKDTLMISRTPEVTCVVVDVSHEDPEVKFNWYVDGVEVHNAKTKPREEQYASTYRVVSVLTVLHQDWLNGKEYKCKVSNKALPAPIEKTISKAKGQPREPQVYTLPPSRCELTKNQVSLSCAVKGFYPSDIAVEWESNGQPENNYKTTPPVLDSDGSFFLVSKLTVDKSRWQQGNVFSCSVMHEALHNHYTQKSLSLSPDYKDDDDK EPKSSDKTHTCPPCPAPELLGGPSVFLFPPKPKDTLMISRTPEVTCVVVDVSHEDPEVKFNWYVDGVEVHNAKTKPREEQYNSTYRVVSVLTVLHQDWLNGKEYKCKVSNKALPAPIEKTISKAKGQPREPQVCTLPPSRDELTKNQVSLWCLVKGFYPSDIAVEWESNGQPENNYKTTPPVLDSDGSFFLYSKLTVDKSRWQQGNVFSCSVMHEALHNRYTQKSLSLSP light: DIVMTQSPLSLPVTPGEPASISCRSSQNLVHSNRNTYLHWYQQKPGQAPRLLIYKVSNRFSGVPDRFSGSGSGTDFTLKISRVEAEDVGVYYCGQGTQVPYTFGQGTKLEIKRTVAAPSVFIFPPSDEQLKSGTASVVCLLNNFYPREAKVQWKVDNALQSGNSQESVTEQDSKDSTYSLSSTLTLSKADYEKHKVYACEVTHQGLSSPVTKSFNRGEC | 1.1
6 | GLS3000 S27aE one-arm antibody (antibody, human IgG1, kappa, L234A L235A, N297A, name in Kabat numbering) heavy: QVQLVESGGGVVQPGRSLRLSCAASGFTFSNAWMHWVRQAPGKGLEWVAQIKAKSNNYATYYAESVKGRFTISRDDSKNSLYLQMNSLKTEDTAVYYCRYVHYGAYYGVDAWGQGTTVTVSSASTKGPSVFPLAPSSKSTSGGTAALGCLVKDYFPEPVTVSWNSGALTSGVHTFPAVLQSSGLYSLSSVVTVPSSSLGTQTYICNVNHKPSNTKVDKKVEPKSCDKTHTCPPCPAPEAAGGPSVFLFPPKPKDTLMISRTPEVTCVVVDVSHEDPEVKFNWYVDGVEVHNAKTKPREEQYASTYRVVSVLTVLHQDWLNGKEYKCKVSNKALPAPIEKTISKAKGQPREPQVYTLPPSRCELTKNQVSLSCAVKGFYPSDIAVEWESNGQPENNYKTTPPVLDSDGSFFLVSKLTVDKSRWQQGNVFSCSVMHEALHNHYTQKSLSLSPDYKDDDDK EPKSSDKTHTCPPCPAPELLGGPSVFLFPPKPKDTLMISRTPEVTCVVVDVSHEDPEVKFNWYVDGVEVHNAKTKPREEQYNSTYRVVSVLTVLHQDWLNGKEYKCKVSNKALPAPIEKTISKAKGQPREPQVCTLPPSRDELTKNQVSLWCLVKGFYPSDIAVEWESNGQPENNYKTTPPVLDSDGSFFLYSKLTVDKSRWQQGNVFSCSVMHEALHNRYTQKSLSLSP light: DIVMTQSPLSLPVTPGEPASISCRSSQELVHSNRNTYLHWYQQKPGQAPRLLIYKVSNRFSGVPDRFSGSGSGTDFTLKISRVEAEDVGVYYCGQGTQVPYTFGQGTKLEIKRTVAAPSVFIFPPSDEQLKSGTASVVCLLNNFYPREAKVQWKVDNALQSGNSQESVTEQDSKDSTYSLSSTLTLSKADYEKHKVYACEVTHQGLSSPVTKSFNRGEC | 0.81
